Laboratory results from the supplement of paper PMC9170038.

Legend:
MS2 coat protein [1] = experiment: apparent KD of MS2 coat protein, switch ON state; designed switch direction (-1 OFF switch, 1 ON switch): 1; higher = weaker reporter binding; conditions: FMN input: 0 or 200 uM; Eterna round: R93 (includes R88 designs)
How it was run: (§1)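 Designed RNA switches were transcribed on-chip from Illumina sequencing clusters. SNAP-549-labelled MS2 coat protein was titrated onto them in twofold steps from 0.7 or 1.5 nM to 3 µM in 100 mM Tris-HCl pH 7.5, 80 mM KCl, 4 mM MgCl2, either without or with constant ligand. Apparent KD reflects the per-design median of normalised cluster binding-curve fits.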

MS2 coat protein [2] = experiment: apparent KD of MS2 coat protein, switch OFF state (with FMN for OFF switches, without FMN for ON switches); designed switch direction (-1 OFF switch, 1 ON switch): 1; higher = weaker reporter binding; conditions: FMN input: 0 or 200 uM; Eterna round: R93 (includes R88 designs)
How it was run: as §1

AGGAAACAUGAGGAUCACCCAUGUAAAAAUAACGCAGGAUAUGGAAACACGAAAGUGAAACCAGAAGGGUGAAAAG [77%, Mat - Mod of Eli, 14]
apparent KD of MS2 coat protein (MS2 coat protein [1]): 18.9 nM | apparent KD of MS2 coat protein (MS2 coat protein [2]): 29.8 nM

AGGAGACAUGAGGAUCACCCAUGUAGAAGGAUGGGAGGAUAUACAAAGACGAGAGUCAGAGUAGAAGGCCUAGGAA [salish99-ss1-182(!)]
apparent KD of MS2 coat protein (MS2 coat protein [1]): 19.7 nM | apparent KD of MS2 coat protein (MS2 coat protein [2]): 55.4 nM

AUAAAACAUGAGGAUCACCCAUGUAAAAAUAUGGAAGGAUAUACGUAGUAAAAUAAAUACGUAGAAGGUCCAAAAA [SS! MT 21]
apparent KD of MS2 coat protein (MS2 coat protein [1]): 15 nM | apparent KD of MS2 coat protein (MS2 coat protein [2]): 19.7 nM

AUAAAACAUGAGGAUCACCCAUGUAGAAAUAAGGGAGGAUAUACAAAGACGAAAGUCAAAGUAGAAGGCUCAAAAG [76%, Meechl 5]
apparent KD of MS2 coat protein (MS2 coat protein [1]): 16.8 nM | apparent KD of MS2 coat protein (MS2 coat protein [2]): 24.3 nM

AUAAAACAUGAGGAUCACCCAUGUAGACACAUGGGAGGAUAUACUAGAUCGAAAGAUCUAGUAGAAGGCCUUUGUA [Mat - Same State 1 - JL mod - D93]
apparent KD of MS2 coat protein (MS2 coat protein [1]): 131 nM | apparent KD of MS2 coat protein (MS2 coat protein [2]): 749 nM

AUAAAAGAAGCGAAGGAUAUCCAAAACCUAACAUGAGGAUCACCCAUGUAAAGAAAGAAAAAAUGGGAGAAGGUCGCAAAGAAUA [73%, More Fisker Same State 2, D3, 9]
apparent KD of MS2 coat protein (MS2 coat protein [1]): 11.9 nM | apparent KD of MS2 coat protein (MS2 coat protein [2]): 22.7 nM

AUAAAGAAAACACAGGAUAUCCAAAAGAAAACAUGAGGAUCACCCAUGUAAAGAAAAUAAAAAUGGGAGAAGGGUGAAAGAAAUA [Mat - Same State 2 - JL mod - D40]
apparent KD of MS2 coat protein (MS2 coat protein [1]): 34.8 nM | apparent KD of MS2 coat protein (MS2 coat protein [2]): 109 nM

AUAAAUAAAAGCAAGGAUAUCCAAAAGAAAACAUGAGGAUCACCCAUGUAAAAGAAAAUAAAAUGGGAGAAGGUGCAAAAUAAAU [viburnum 8]
apparent KD of MS2 coat protein (MS2 coat protein [1]): 14.8 nM | apparent KD of MS2 coat protein (MS2 coat protein [2]): 27.5 nM

AUACUGGAGGACAAGGAUAUGUGCUCCACGACAUGAGGAUCACCCAUGUGCGACGUGGUAGUGAAACAGAAGGUGUCCUAUUGUA [Edonisve]
apparent KD of MS2 coat protein (MS2 coat protein [1]): 13.1 nM | apparent KD of MS2 coat protein (MS2 coat protein [2]): 17.7 nM

AUAUAUAAAAGGUAGGAUAUUCUAAAAUAAACAUGAGGAUCACCCAUGUAAAGAAAGAAACUCAUGGAGAAGGACCAUAUAUAUA [ss2 5th modifying Eli's mod of Tesla]
apparent KD of MS2 coat protein (MS2 coat protein [1]): 45.6 nM | apparent KD of MS2 coat protein (MS2 coat protein [2]): 156 nM

AUAUAUAUAAGACAGGAUAUCCUAAAGUAAACAUGAGGAUCACCCAUGUAAAGAAAGAAACUCAUGGAGAAGGGUCAAUAUAUAU [Mat - Same State 2 - Tesla mod - D81]
apparent KD of MS2 coat protein (MS2 coat protein [1]): 14.1 nM | apparent KD of MS2 coat protein (MS2 coat protein [2]): 48.6 nM

AUAUAUAUAAGGUAGGAUAUCCAAAAAUAAACAUGAGGAUCACCCAUGUCCAUAAAGAAUAAAUGGGAGAAGGACCAUAUAUAUA [viburnum 9]
apparent KD of MS2 coat protein (MS2 coat protein [1]): 28.5 nM | apparent KD of MS2 coat protein (MS2 coat protein [2]): 48.6 nM

AUAUAUAUAAGGUAGGAUAUCCAAAAAUCCACAUGAGGAUCACCCAUGUAAAGAAAGAAAAAAUGGGAGAAGGACCAUAUAUAUA [77%, More Tesla, 6]
apparent KD of MS2 coat protein (MS2 coat protein [1]): 16.9 nM | apparent KD of MS2 coat protein (MS2 coat protein [2]): 31.9 nM

AUAUAUAUAAGGUAGGAUAUCCAAUAAUCCACAUGAGGAUCACCCAUGUAAAGAAAGAAAAAGUGGGAGAAGGGCCAUAUAUAUA [viburnum 7]
apparent KD of MS2 coat protein (MS2 coat protein [1]): 17.4 nM | apparent KD of MS2 coat protein (MS2 coat protein [2]): 48.4 nM

AUGAAUAGAAUCGAGGAUAUCCAGUCAUGAACAUGAGGAUCACCCAUGUAAGAGAGAGUAUAAUGGGAGAAGGCGAGUAAUAGAU [JR_SS002_Sub1702]
apparent KD of MS2 coat protein (MS2 coat protein [1]): 27 nM | apparent KD of MS2 coat protein (MS2 coat protein [2]): 84.5 nM

AUUAAAUAUAGUUAGGAUAUAAUAUGUAAGACAUGAGGAUCACCCAUGUCCUAAGAAUAGUUAAAUUAGAAGGAACAGUGAAUAU [JR_SS002_Sub420]
apparent KD of MS2 coat protein (MS2 coat protein [1]): 24.1 nM | apparent KD of MS2 coat protein (MS2 coat protein [2]): 24.5 nM

AUUCCAAAUAGUCAGGAUAUCAGGCGUAAGACAUGAGGAUCACCCAUGUACUUAGUAAAAGUAACUGAGAAGGGACAGGGUGUAA [JR_SS002_Sub407]
apparent KD of MS2 coat protein (MS2 coat protein [1]): 8.64 nM | apparent KD of MS2 coat protein (MS2 coat protein [2]): 18.5 nM

CAGAGACAUGAGGAUCACCCAUGUAGGAUUAUGGGAGGAUAUACAAAGACGAGAGUCAGAGUAGAAGGCCUAGGAG [salish99-ss1-143]
apparent KD of MS2 coat protein (MS2 coat protein [1]): 24 nM | apparent KD of MS2 coat protein (MS2 coat protein [2]): 48.6 nM
